Patent US20170355992, “FACTOR V/Va-TARGETING APTAMER COMPOSITONS AND METHODS OF USING THE SAME” (Duke University, published 2017)

Columns and labels:
[1] = target: T1, Coagulation Factor Va (FVa), modified (Homo sapiens, UniProt P12259;P12259 P12259:29-737,P12259:1574-2224); test: filter; HBS 2 mM CaCl2, 0.01% BSA, 0.1% PEG 8000, 37 C; low Bmax; conditions: tags: modified FVa, protease-stabilised form described previously; label: 5'-32P
T1 chain 1: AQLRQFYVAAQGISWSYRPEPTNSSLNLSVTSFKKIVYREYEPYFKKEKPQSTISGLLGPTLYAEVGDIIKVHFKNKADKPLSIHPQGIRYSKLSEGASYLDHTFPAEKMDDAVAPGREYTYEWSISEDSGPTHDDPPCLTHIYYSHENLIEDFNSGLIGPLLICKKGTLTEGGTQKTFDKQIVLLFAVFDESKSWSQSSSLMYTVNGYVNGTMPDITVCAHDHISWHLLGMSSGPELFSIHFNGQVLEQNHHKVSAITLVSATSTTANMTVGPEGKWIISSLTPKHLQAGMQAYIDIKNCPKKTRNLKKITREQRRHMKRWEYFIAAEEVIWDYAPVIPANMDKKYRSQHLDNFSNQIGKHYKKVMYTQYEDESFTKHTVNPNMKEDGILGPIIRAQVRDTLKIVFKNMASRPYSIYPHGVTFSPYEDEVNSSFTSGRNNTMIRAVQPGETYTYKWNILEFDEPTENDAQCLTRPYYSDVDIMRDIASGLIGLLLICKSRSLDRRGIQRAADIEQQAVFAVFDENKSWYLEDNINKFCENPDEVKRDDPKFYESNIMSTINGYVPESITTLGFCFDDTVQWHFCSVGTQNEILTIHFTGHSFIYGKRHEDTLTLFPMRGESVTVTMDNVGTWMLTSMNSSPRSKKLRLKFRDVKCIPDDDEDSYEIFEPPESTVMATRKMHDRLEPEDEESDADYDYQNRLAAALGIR
T1 chain 2: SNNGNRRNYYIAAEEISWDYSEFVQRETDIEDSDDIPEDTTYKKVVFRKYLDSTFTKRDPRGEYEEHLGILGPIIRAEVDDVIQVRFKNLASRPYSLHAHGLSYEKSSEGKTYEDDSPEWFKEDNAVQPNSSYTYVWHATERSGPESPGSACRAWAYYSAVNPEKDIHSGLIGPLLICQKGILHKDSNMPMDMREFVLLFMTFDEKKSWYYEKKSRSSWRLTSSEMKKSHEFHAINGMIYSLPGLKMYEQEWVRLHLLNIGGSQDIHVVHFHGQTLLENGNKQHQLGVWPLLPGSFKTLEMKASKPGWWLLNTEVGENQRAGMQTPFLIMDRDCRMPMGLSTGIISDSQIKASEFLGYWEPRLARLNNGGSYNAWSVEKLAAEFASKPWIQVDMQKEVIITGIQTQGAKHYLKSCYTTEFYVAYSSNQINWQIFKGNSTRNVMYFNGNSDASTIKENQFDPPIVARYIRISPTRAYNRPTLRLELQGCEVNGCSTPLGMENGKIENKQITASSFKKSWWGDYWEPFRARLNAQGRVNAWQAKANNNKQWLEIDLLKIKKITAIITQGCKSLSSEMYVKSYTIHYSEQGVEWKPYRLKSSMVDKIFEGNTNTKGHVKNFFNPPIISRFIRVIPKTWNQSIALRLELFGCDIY
Method: (§1) Apparent binding affinity of the aptamers to a purified protein was determined using double filter nitrocellulose binding assays. Binding of the radiolabeled pooled RNA, 11HMT, and 11Mut2 to modified FV and FVa was assessed by incubating trace amounts of radiolabeled RNA with serial dilutions of the purified target protein. For SELEX round binding, pooled RNAs were incubated with modified FV or FVa diluted two fold from 0 nM to 750-800 nM for both proteins. For 11HMT, the radiolabeled RNAs were incubated with both proteins from 0 nM to 500 nM. The radiolabeled RNAs were denatured and re-folded in Hepes-buffered saline (HBS) with CaCl2 (20 mM Hepes pH 7.4, 150 mM NaCl, 2 mM CaCl2), 0.01% bovine serum albumin (BSA), and 0.1% w/v polyethylene glycol 8000 (PEG 8000) by incubating at 95° C. for 3 minutes followed by cooling to room temperature for 3 minutes. The radiolabeled RNA alone was incubated at 37° C. for 5 minutes, followed by incubation with the protein in HBS with CaCl2, 0.01% BSA, and 0.1% w/v PEG 8000 at 37° C. for 5 minutes. […] Bound and unbound RNA was quantitated using a Storm 825 phosphoimager (GE Healthcare, Little Chalfont, Buckinghamshire, UK) and quantified via densitometry.

[2] = target: T2, Coagulation Factor V (FV), modified (Homo sapiens, UniProt P12259 P12259:29-2224); test: FP_none filter; conditions: tags: modified FV, protease-stabilised form described previously; label: 5'-32P
Method: as §1

[3] = target: T1, Coagulation Factor Va (FVa), modified; test: filter; no binding above starting library; conditions: tags: modified FVa, protease-stabilised form described previously; label: 5'-32P
Method: as §1

[4] = target: T2, Coagulation Factor V (FV), modified; test: filter; no binding above starting library; conditions: tags: modified FV, protease-stabilised form described previously; label: 5'-32P
Method: as §1

[5] = target: T1, Coagulation Factor Va (FVa), modified; test: SPR; three runs: 6.222, 5.408, 5.115; text ~6 nM; HBS 2 mM CaCl2, 25 C; conditions: tags: modified FVa, protease-stabilised form described previously; label: 5'-biotin
Method: (§2) The T18.3 binding constants were determined using surface plasmon resonance (SPR) with a BiaCore3000 (GE Healthcare). This method was used to determine apparent KDs for T18.3 to modified FV, modified FVa, the FV heavy chain, and the FV light chain. The T18.3 aptamer was synthesized (Biosynthesis, Lewisville, Tex.) and included a biotin and PEG 11 spacer on the 5′ end to allow for immobilization of the aptamer on a biotin CAPture chip kit (GE Healthcare). Prior to chip coating, the biotinylated T18.3 was refolded using the same protocol as the in vitro transcribed T18.3 by heating to 95° C. for 3 minutes followed by 3 minutes at room temperature. Aptamer conjugation onto the chip was achieved by flowing aptamer solution over the chip at a rate of 2 μL/min for 5 minutes. For binding to the modified FV, FVa, and purified FV heavy chain, 5.0 ng of aptamer was coated onto the chip. For the purified FV light chain experiments 15.3 ng of aptamer was coated onto the chip. Binding experiments using SPR was performed at 25° C. in HBS with CaCl2, without the addition of BSA or PEG 8000. […] Increasing concentrations of protein were flowed over the T18.3-coated chip and apparent KD was determined by calculating the differences in response units (RU) from buffer for each protein concentration immediately before the end of each protein injection and plotted as ΔRU versus protein concentration. […]

Factor V light chain = Factor V light chain (UniProt P12259 P12259:1574-2224); test: SPR; three runs: 1.926, 1.504, 7.997; text ~5 nM; HBS 2 mM CaCl2, 25 C; conditions: label: 5'-biotin
Method: as §2

[6] = target: T2, Coagulation Factor V (FV), modified; test: SPR; three runs: 16.55, 10.00, 8.213; text ~10 nM; HBS 2 mM CaCl2, 25 C; conditions: tags: modified FV, protease-stabilised form described previously; label: 5'-biotin
Method: as §2

Factor Xa = Factor Xa (Homo sapiens, UniProt P00742;P00742 P00742:41-179,P00742:235-488); test: filter; no binding up to 1000 nM FXa; conditions: label: 5'-32P
[7] = target: T2, Coagulation Factor V (FV), modified; test: filter; no binding above starting library; conditions: tags: modified FV, protease-stabilised form described previously; label: 5'-32P; remark: listed apart in the source
[8] = target: T1, Coagulation Factor Va (FVa), modified; test: filter; lead clone chosen by aPTT activity and binding to FV and FVa; no value given; conditions: tags: modified FVa, protease-stabilised form described previously; label: 5'-32P
[9] = target: T2, Coagulation Factor V (FV), modified; test: as above; conditions: tags: modified FV, protease-stabilised form described previously; label: 5'-32P
[10] = target: T1, Coagulation Factor Va (FVa), modified; test: filter; lead clone; also at 2.0 uM inhibits FVa-phospholipid docking by light scattering (p125); conditions: tags: modified FVa, protease-stabilised form described previously; label: 5'-32P

Sequence of Factor Xa (P00742 41-179, chain 1 of 2): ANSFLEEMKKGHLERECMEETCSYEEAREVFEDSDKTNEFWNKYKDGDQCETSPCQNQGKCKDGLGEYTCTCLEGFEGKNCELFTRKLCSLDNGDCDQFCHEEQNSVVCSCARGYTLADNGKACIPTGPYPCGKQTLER
Sequence of Factor Xa (P00742 235-488, chain 2 of 2): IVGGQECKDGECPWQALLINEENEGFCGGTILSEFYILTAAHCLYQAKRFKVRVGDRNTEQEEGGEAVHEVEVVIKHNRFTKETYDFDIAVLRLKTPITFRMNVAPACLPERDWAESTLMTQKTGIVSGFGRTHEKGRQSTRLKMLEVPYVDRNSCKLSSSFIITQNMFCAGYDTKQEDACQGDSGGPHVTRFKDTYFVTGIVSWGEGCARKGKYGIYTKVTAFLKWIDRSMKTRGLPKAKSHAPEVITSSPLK

GGAUCCAACGCACAAUUACGUGCCUUGUCAGACGACUCGCUGAGGAUCC (ssRNA, 2'-F C and U) [11HMT] was tested, and the Kd [1] was 0.822 nM and the Kd [2] was 23.2 nM.

GGAUCCAACGCACAAUUACGUGCCGGUUCAGACGACUCGCUGAGGAUCC (ssRNA, 2'-F C and U) [11Mut2]: no binding [3]; no binding [4].

B1: T18.3 biotinylated (ssRNA)
RNA: GGACUUGGAUAACCUCACCGCAAUGGCGGCUUGUCAGACGACUCGCUGAGGAUCCGAG
modifications: 2'-F C and U; 5' biotin and PEG11 spacer
With B1 the Kd [5] was 5.64 nM, the Kd (Factor V light chain) was 3.47 nM and the Kd [6] was 11.7 nM.

B2: T18.3 (ssRNA)
RNA: GGACUUGGAUAACCUCACCGCAAUGGCGGCUUGUCAGACGACUCGCUGAGGAUCCGAG
modifications: 2'-F C and U
B2: no binding (Factor Xa).

B3: 18.3Mut1 (ssRNA)
RNA: GGACUUGGAUAACCUCACCGCAAUGGCGGAGGGUCAGACGACUCGCUGAGGAUCCGAG
modifications: 2'-F C and U
B3: no binding [7]; no binding (Factor Xa).

B4: FVa R9c11 (ssRNA)
RNA: GGGAGGACGAUGCGGUCACGCCCCUCAGGAUCCAACGCACAAUUACGUGCCUUGUCAGACGACUCGCUGAGGAUCCGAGA
modifications: 2'-F C and U
B4: binds [8]; binds [9].

B5: FV R8c7 (ssRNA)
RNA: GGGAGGACGAUGCGGUCGCCCAAACUUGGAUAACCUCACCGCAAUGGCGGCUUGUCAGACGACUCGCUGAGGAUCCGAGA
modifications: 2'-F C and U
B5: binds [9]; binds [10].
